1 protein from doi:10.1101/2022.10.17.512556 (bioRxiv, 2022) can be followed below.

Where “and” joins values, the source holds several entries; their conditions need not be identical. Equal entries are not always repeated. Where two headings read alike, the source gives them in different places.

The term stoichiometry N denotes the number of molecules, sites or subunits per partner or assembly.

Data set [1] deals with the molecule itself. The data set can be described thus: cryo-EM structure.
Data set [2] deals with the molecule itself. In words: cryo-EM structure. The source holds these as a separate data set.

B1: S210A DegP (enzyme)
chain: AETSSATTAQQMPSLAPMLEKVMPSVVSINVEGSTTVNTPRMPRNFQQFFGDDSPFCQEGSPFQSSPFCQGGQGGNGGGQQQKFMALGSGVIIDADKGYVVTNNHVVDNATVIKVQLSDGRKFDAKMVGKDPRSDIALIQIQNPKNLTAIKMADSDALRVGDYTVAIGNPFGLGETVTSGIVSALGRSGLNAENYENFIQTDAAINRGNAGGALVNLNGELIGINTAILAPDGGNIGIGFAIPSNMVKNLTSQMVEYGQVKRGELGIMGTELNSELAKAMKVDAQRGAFVSQVLPNSSAAKAGIKAGDVITSLNGKPISSFAALRAQVGTMPVGSKLTLGLLRDGKQVNVNLELQQSSQNQVDSSSIFNGIEGAEMSNKGKDQGVVVNNVKTGTPAAQIGLKKGDVIIGANQQAVKNIAELRKVLDSKPSVLALNIQRGDSTIYLLMQ
As for B1, the “stoichiometry N” value was 30 and 60 in the data set “cryo-EM structure [1]”; 18 in “cryo-EM structure [2]”.
